Laboratory results as given in a protein production outcome set (Wang et al. 2014).

experiment: label from the status in PepcDB records
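Further: failed if final PepcDB status was selected cloned or expressed and not failed if soluble or beyond.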

Sequence | protein production
MEAEVWEAEGYNLVLDSDLYDADGYDVPDPGLLTEKNELTFTEPSQVLPFLTSSQQWQSLTPRARARRLWLLLRTSLHEVVEKEKRAELRAARLTHGLEPLRRLEVAAGLRSVAQDPVGGRFVVLDGAGRLHLHKEDGWAQETLLAPVRLTGLVTVLGPLGAVGRFVGWGPAGLAILRPNLSLLWLSEQGVGRAPGWAPTCCLPVPDLRLLLVAEMNSSLALWQFRSGGRRLVLRGSALHPPPSPTGRLMRLAVAPVPPHHVLRCFAAYGSAVLTFDLHAWTLVDVRRDLHKTTISDLAYCEEVEAMVTASRDSTVKVWEADWQIRMVFVGHTGPVTAMTVLPNTTLVLSASQDGTLRTWDLQAAAQVGEVALGFWGQDKLSRRVGRLLAPVRPGWPVLSLCASSMQLWRVRELYSPLAQLPAKVLHVQVAPALPAPAHQSLPTRLVCACADGSVYLLSAATGRIVSSLLLEPEDCAAAVAYCLPREALWLLTRAGHLVRANAARCPMSVLHRVCPPPPPAPQPCCLHLYSHLTDLGGAFSSWEIVRQHWGELRCSSVACAWKNKNRYLPVVGHTDGTLSVLEWLSSKTVFQTEAHSPGPVVAIASTWNSIVSSGGDLTVKMWRVFPYAEESLSLLRTFSCCYPAVALCALGRRVTAGFEDPDSATYGLVQFGLGDSPRLDHRPQDDPTDHITGLCCCPTLKLYACSSLDCTVRIWTAENRLLRLLQLNGAPQALAFCSNSGDLVLALGSRLCLVSHRLYLPTSYLVKKMCRKAPDVVDDPPLPLMSQESLTSAQLQRLTNLHGAASLRSHAGLLSPPGGPPFPLWVGAWRCGALWS | failed
MEAKLQVGVLGFGTVGSGVIHILEEHQEKISQVTGYHISVKKVLVRDLEKNRRYETKGFELTTNPSDVLDDPEIAVVVEVMGSITTAREYILQALKAGKHVVTANKDLIALHGDELVAVAQANNCDLFYEASVAGGIPILRTIVNSLAADKIQKVMGIVNGTTNFMLTKMTTEKKSYEEVLAEAQALGFAESDPTNDVDGIDAARKMVIMTRLAFGMNVNLDNVETSGIRGISPEDIEVAYQLGYKIKLVGTAEETNGTVNVNVGPVLLPKAHPLAGVNYENNAVFVTGAAVGETMFYGPGAGELPTATSVVSDLITVAKNSRLGTNGNAFNSYKHETKHTPKEQVFSKYYLRLTMDDKTGTFLKLTQIFAEAGVGFDKILQQPYDDFTATVVIVTHSTSQAQLEQAITRVKNEPEMQMLAKYSVVEG | not failed
MEALKIALLGGGTVGSAFYNLVLERAEELSAFGVVPRFLGVLVRDPRKPRAIPQELLRAEPFDLLEADLVVEAMGGVEAPLRLVLPALEAGIPLITANKALLAEAWESLRPFAEEGLIYHEASVMAGTPALSFLETLRGSELLELHGILNGTTLYILQEMEKGRTYAEALLEAQRLGYAEADPTLDVEGIDAAHKLTLLARLLVDPGFPFAEVEAQGIARLTPEVLQKAEARGERVRLVASLFGEGGRWRAAVAPRRLPQDHPLARARGNALWVRARPLGEAFVTGPGAGGGATASGLFADLLRFLSGAPGHLPAPRARPPLEEGSPWPGVE | failed
MEALRLGFSPCPNDTFIFYALVHGRVESPVPLEPVLEDVETLNRWALEGRLPLTKLSYAAYAQVRDRYVALRSGGALGRGVGPLVVARGPLQALEGLRVAVPGRHTTAYFLLSLYAQGFVPVEVRYDRILPMVAQGEVEAGLIIHESRFTYPRYGLVQVVDLGAWWEERTGLPLPLGAILARRDLGEGLIRALDEAVRRSVAYALAHPEEALDYMRAHAQELSDEVIWAHVHTYVNAFSLDVGEEGERAVARLFAEAEARGLAAPSPRPLFV | not failed
MEATKERMEKDQKKRVVTNEAGKAEDNTIRTIIRESIVEDRGSNDDDGNKDNDHGASKPEDILAFSRTVRKIDSSLE | failed
MECGVFHTPYMRPGRKDKDTFEYSLLLAAACDKFGYRDFMVGEHGMQAWENIPNPELLIVAAAQITERMRFAPMAHIVPLHNPSTLAIQIGYTSQLLEDRYFLGVGAGSWENEAVLRGQPGDLSEAHPRLMEGLEVMDKVWRQEPFDFEGKYYKAARLDGQIDPGSVASHGEFKVKDGEEYHLTADHSPHGGADGLEIAVTGLSKNSPSHRLAGERGWTPISFYGGSALLRSQWDTYSEAVRSIGGTPQGSRFKIARDVFVAKTDEEAKEKAKNGALGLAWQKYLMPVYQKYRILQGFIDDADHKVDIDDVDLDYLADNVWLCGSPDTVIEKIEKTFDLAGFRYGQLAVNTHDAMDDPEPWIESLRLFATEVVPNVPVEGTHETVAVG | failed
MEDEIKSFAKDRKLIIEDSKNSKNNIVEVQKAIETLKDEKNAKNVVVDFTEYNPLHNGHKYCMDFGKREGLFISVIPGPLERSGRGIPYLVNRYIRSEMALLAGADLVVEGPPMGIMGSGQYMQCLIKIFSALNGDIIPRGYIEEETMEKVINSINNKNHIKIKPYNISCIETGEKFGEKLEIDNYVIASMSYTIYKLKENFPEWKPKFKFIERIEGISGTKIREGVFNNNFESIKHMLPETTLNVFKSFENNLSEIILKRNEQMVLDTVNNFDLSKYLPENISEKLNEKEYYKSIEEIKECIPRGFSKNNIERTISKLEARIEKETISKYIENYPANLKILKGINNNE | failed
MEDFWVQYGDEMLPVIGDFPRKGDYLPSFMLVDDQKHDAALESFSHTPKLIVTLLSVDEDEHAGLLLLRETRRFLDSWPHLKLIVITVDSPSSLARARHEHGLPNIALLSTLRGRDFHKRYGVLITEYPLSGYTSPAIILADAANVVHYSERLANTRDFFDFDAIEKLLQEGEQQAMAAEREAAEARQEQDAEREKGTERLLEKAKLIQDQLNRNGDPGR | not failed
MEDKFANLSLHEKTGKSSIQLNEQTGSDNGSAVKRTSSTSSHYNNINADLHARVKAFQEQRALKRSASVGSNQSEQDKGSSQSPKHIQQIVNKPLPPLPVAGSSKVSQRMSSQVVQASSKSTLKNVLDNQETQNITDVNINIDTTKITATTIGVNTGLPATDITPSVSNTASATHKAQLLNPNRRAPRRPLSTQHPTRPNVAPHKAPAIINTPKQSLSARRAVKLPPGGMSLKMPTKTAQQPQQFAPSPSNKKHIETLSNSKVVEGKRSNPGSLINGVQSTSTSSSTEGPHDTVGTTPRTGNSNNSSNSGSSGGGGLFANFSKYVDIKSGSLNFAGKLSLSSKGIDFSNGSSSRITLDELEFLDELGHGNYGNVSKVLHKPTNVIMATKEVRLELDEAKFRQILMELEVLHKCNSPYIVDFYGAFFIEGAVYMCMEYMDGGSLDKIYDESSEIGGIDEPQLAFIANAVIHGLKELKEQHNIIHRDVKPTNILCSANQGTVKLCDFGVSGNLVASLAKTNIGCQSYMAPERIKSLNPDRATYTVQSDIWSLGLSILEMALGRYPYPPETYDNIFSQLSAIVDGPPPRLPSDKFSSDAQDFVSLCLQKIPERRPTYAALTEHPWLVKYRNQDVHMSEYITERLERRNKILRERGENGLSKNVPALHMGGL | failed
MEDKPLGILRVHVKRGINLAIRDATTSDPYVVITLANQKLKTRVINNNCNPVWNEQLTLSIKDVNDPIRLTVFDKDRFSGDDKMGDAEIDFRPFLEAHQMELDFQKLPNGCAIKRIRPGRTNCLAEESSITWSNGKIMQEMILRLKNVECGEVELMLEWTDGPGCKGLGREGSKKTPWMPTKRLD | failed
MEDLERRQRSQVKTHEVQAHGRISRLIPAEDFGIIETPEGREIYFHRHSVVNSDFDRLTVGTAVRFAEEMGEEGPQASSVRVEGKHHLIGLEHHHHHH | not failed
MEDQGVLAGFFALSFAFILVILIWAIISYLLTAFALYSMAKNDGATDGVLAFIPFLNSKTWGDLAKDKLPDFLKEEAGWKVFGIYVACFIFNFVPIISLLATAVSIVLSIYLIYAILDRYGTNSILFTIIHVITFSVFLPIHLFIIRNEPVRYKE | failed
MEDVKGKEIIDDAPIDNKVSDEMESEENAIKKKYGGLLPKKIPLISKDHERAFFDSADWALGKQKGQKPKGPLEALRPKLQPTPQQQPRARRMAYSSGETEDTEIDNNEAPDDQACASAVDSTNLKDDGGAKDNIKS | failed
MEEELQHSHCVNCVSRRCMTRPEPGISCDLIGCPLVCGAVFHSCKADEHRLLCPFERVPCLNSDFGCPFTMARNKVAEHLEMCPASV | not failed
MEEEMKKKVSRGELGGEAQNCPRCESPNTKFCYYNNYSLSQPRYFCKSCRRYWTKGGTLRNVPVGGGCRRNKRSSSSAFSKNNNNKSINFHTDPLQNPLITGMPPSSFGYDHSIDLNLAFATLQKHHLSSQATTPSFGFGGDLSIYGNSTNDVGIFGGQNGTYNNSLCYGFMSGNGNNNQNEIKMASTLGMSLEGNERKQENVNNNNNNSENPSKVFWGFPWQMTGDSAGVVPEIDPGRESWNGMVSSWNNGLLNTPLV | not failed
